In patent US6156727A, “Anti-atherosclerotic peptides and a transgenic mouse model of antherosclerosis” (UAB Research Foundation, priority 1997, dated 2000):
Where “and” joins values, the source holds several entries; their conditions need not be identical. Equal values may be shown once. Read-outs that look alike come from different tables or passages of the source. No end group written: not given here.

Key:
[1] = system: HIV-I Gp4l-induced cell fusion; test: HIV-I Gp41-induced cell fusion; type: cell-based
cholesterol-loaded cells = test: Efflux of phospholipid and cellular cholesterol from cholesterol-loaded cells; type: cell-based
Text: 4) The amphipathic helical peptide 18A-Pro-18A mimics HDL in clearing cellular cholesterol. The removal of cholesterol from peripheral cells by HDL is thought to initiate the process of reverse cholesterol transport. HDL is capable of stimulating the net release of cholesterol from cells. This process thus inhibits the formation of foam cells, the hallmark of atherosclerosis.

neutrophil activation = test: Neutrophil activation; type: cell-based
[2] = IP administration of radiolabelled 18A-Pro-18A and human apo A-I in mice, plasma radioactivity; type: in vivo, 57BL6/J mice; conditions: for amount of the injected dosage present in the blood: 4 or 5 hours following IP injection, based on specific activity; for Total plasma cpm as a percent of the injected cpm: IP, radiolabelled, 4 or 5 hours (respectively) after injection, plasma volume assumed 4.2% of body weight; for presence of the radiolabel in isolated lipoprotein fractions (FPLC): after IP injection; for form of radioactivity in the plasma (TCA precipitation and FPLC analysis): early time points (up to 5 hours)
Method: Since the peptide administration experiments involves intraperitoneal administration of peptide, the effect of administration of radiolabelled peptide and human apo A-I was compared in mice. Briefly, approximately 200,000 cpm of either the peptide (4.4 μg) or human apo A-I (3.0 μg) were administered intraperitoneally into 57BL6/J mice and blood samples were taken by retro-orbital bleeding from anesthetized animals. The final time point was taken from the axilla of anesthetized animals. Radioactivity was measured in plasma sample, and was calculated as total plasma cpm, assuming plasma volume as 4.2% of the body weight.
Based on the specific activity of the radiolabelled materials, approximately […] of the injected dosage was present in the blood after 4 or 5 hours following the injection. […] It should be noted that the major lipoprotein in 57BL6/J mice is HDL.
Thus, intraperitoneal administration allows for the peptide or human apoA-I to be released into plasma gradually. Intraperitoneal administration of the peptide is therefore feasible

[3] = system: diet-induced lipid accumulation in C57 BL6/J mice; test: IP administration of peptide for sixteen weeks to high fat diet administered C57BL 6/J mice (aortal histology, total cholesterol, mortality); type: in vivo
Method: C57BL mice were administered a high cholesterol diet (modified Thomas Hartcroft) and were divided into two groups. Group I received intraperitoneal administration of saline each day for 16 weeks. Group II received intraperitoneal administration of the peptide solution (μg/mice/day) for 16 weeks. At the end of the experiment, mice were sacrificed and aortas were harvested, cross-sectioned and stained with Oil Red O. FIGS. 1A-1F show the cross sections of the aortas from animals 1 and 2.
A dosage of peptide to be injected was selected based on the in vivo studies conducted using 18A to inhibit the LPS-induced toxicity in mice (Levine, et al., PNAS, 1993, 90:12040-12044). In these experiments, […] of the peptide 18A was used per mouse to inhibit endotoxin-induced death of mice. Because of the solubility of the peptide 37pA, and since it was desirable to maintain the same volume used by Levine et al, […] of peptide per mouse per day was injected.
Peptide 18A-Pro-18A dissolved in sterile saline was administered IP everyday for sixteen weeks 11 animals on high fat diet. Control animals on high fat diet were administered saline for sixteen weeks. At the end of sixteen weeks, animals were sacrificed and histology of hearts were done. The mortality in both the groups were similar (only three in each groups) indicating no toxicity due to peptide 18A-Pro-18A administration.

[4] = system: human placental lactogen synthesis; test: Stimulation of human placental lactogen synthesis; type: cell-based
[5] = Turnover (clearance curves) in rats; conditions: 18A-Pro-18A versus human apo A-I
[6] = Bilayer stabilization (transition temperature of DOPE); type: physicochemical
Text: (§1) 2. The amphipathic helical peptide 18A-Pro-18A is the closest mimic of human apoA-I as a bilayer stabilizer. Bilayer stabilizers increase the transition temperature of DOPE whereas destabilizing molecules decrease the transition temperature. Such a destabilization can cause the inverted phase lipids (or hexagonal phase). Formation of this by the lytic peptide can be inhibited by human apoA-I or class A peptides.

[7] = Stability of peptide lipid complex; type: physicochemical; conditions: compared to 18A-Ala-18A and 18A-18A
Text: 1. The tandem repeating class A amphipathic helix linked by a proline forms an optimal arrangement for lipid association.
as §1

[8] = BSA-induced lysis of fatty acid-containing vesicles
[9] = target: T1, HDL receptor on rat adrenal cells (Rattus norvegicus, UniProt P97943); test: Competition with HDL for binding to rat adrenal cells
T1 construct: endogenous in cells; host or cells: rat adrenal cells
T1 sequence (P97943 1-509): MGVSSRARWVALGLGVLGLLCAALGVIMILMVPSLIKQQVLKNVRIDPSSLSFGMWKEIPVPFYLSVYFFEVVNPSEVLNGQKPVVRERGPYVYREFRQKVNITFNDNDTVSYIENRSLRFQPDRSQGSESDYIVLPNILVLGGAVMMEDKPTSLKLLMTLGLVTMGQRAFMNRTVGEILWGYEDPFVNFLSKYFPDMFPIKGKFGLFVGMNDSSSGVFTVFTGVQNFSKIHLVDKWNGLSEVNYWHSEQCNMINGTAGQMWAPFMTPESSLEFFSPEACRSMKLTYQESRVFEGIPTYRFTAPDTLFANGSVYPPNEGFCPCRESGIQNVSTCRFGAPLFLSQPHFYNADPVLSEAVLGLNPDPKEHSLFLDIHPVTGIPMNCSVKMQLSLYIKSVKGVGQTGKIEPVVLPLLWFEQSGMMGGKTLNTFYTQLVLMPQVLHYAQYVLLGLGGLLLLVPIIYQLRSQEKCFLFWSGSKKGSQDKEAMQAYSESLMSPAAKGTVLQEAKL
Text: 5) The amphipathic helical peptide 18A-Pro-18A competes with HDL for binding to rat adrenal cells. Recently, it has been shown that HDL delivers cholesterol to the cells through class B scavenger receptor SRBI. This receptor binds HDL with high affinity and is primarily expressed in the liver and in nonplacental steroidogenic tissues.

[10] = system: diet administered atherosclerosis in peptide transgenic mice; test: In vitro fertilized peptide-transgenic mice on high fat diet for 16 weeks (plasma peptide, cholesterol, aortic cross-section); type: in vivo; conditions: transgenic IVF mice, retroorbital bleed, Western analysis; some of the mice
Text: The peptide gene was then cloned into the MunI site of the apoE-promoter that is specific for expression of the peptide/protein in the liver. SalI-Spel fragment of the apoE promoter to which the peptide gene was subcloned was microinjected into mouse oocytes to produce transgenic mice. […] Further transgenic mice were generated from these two founders and analysed for the presence of peptide gene.
This produced a number of animals with the peptide gene present in different amounts. Western analysis using the antibody produced for the chemically synthesized peptide indicated the presence of peptide in different amounts (FIG. 4).
The animals were then administered TeckLad diet that is known to produce foam cell lesions in 57BL6/J mice when administered for sixteen weeks. At the end of sixteenth week, mice were sacrificed, plasma was collected and the hearts were harvested. The aortal cross-sections were stained with Oil Red O that stains lipid laden fatty streaks. The plasma samples were subjected to lipoprotein analysis. The results of plasma analysis indicated clearly that the profiles were different from each other and some of the profiles looked very similar to the control mice on the normal diet, with the cholesterol values around ≤100 mg/dl.
Blood from the in vitro fertilized animals were obtained from the retroorbital bleed and red cells were separated by centrifugation. […]

[11] = system: plasma cholesterol in B16/SJL mice; test: Effect of peptides on total cholesterol, high fat diet administered to B16/SJL mice; type: in vivo
Method: Peptide injections (50 μg/animal/day for 16 weeks).

[12] = system: spontaneous lesions in apoE-knockout mice; test: IP administration of modified 18A peptide to apoE-knockout mice on normal diet; type: in vivo; conditions: for aortal lesions: IP administration, apoE-knockout mice
Method: Similar experiments were completed in apoE-knockout animals. The peptide used was a modified 18A of the present invention with the sequence:
This peptide was administered to animals on a normal diet, to determine if the intraperitoneal administration of this peptide would inhibit lesions that these animals produce spontaneously, even without high fat diet administration. The lesions in this case is different than that produced after sixteen weeks of high fat diet administration in 57BL6/J mice.

[13] = rat, in vivo

Substance: DWLKAFYDKVAEKLKEAFPDWLKAFYDKVAEKLKEAF [18A-Pro-18A, class A amphipathic helical peptide 18A as head-to-tail dimer with a proline incorporated]
- effectiveness in HIV-I Gp4l-induced cell fusion [1]: most effective peptide
- efflux of phospholipid and cellular cholesterol (cholesterol-loaded cells): effectively effluxes
- effectiveness in neutrophil activation (neutrophil activation): most effective peptide
- amount of the injected dosage present in the blood [2]: approximately 1 mg
- Total plasma cpm as a percent of the injected cpm [2]: 25.5%
- presence of the radiolabel in isolated lipoprotein fractions (FPLC) [2]: exclusively in HDL
- form of radioactivity in the plasma (TCA precipitation and FPLC analysis) [2]: present in the intact peptide/protein
- antibody to the peptide ([3]; IP every day for sixteen weeks): no antibody was detected
- toxicity (mortality compared with saline group) ([3]; IP every day for sixteen weeks, high fat diet): no toxicity
- foam cells in cross sections from the aorta ([3]; IP over 16 weeks, high fat diet, FIG. 1C): no foam cells can be seen
- lipid accumulation in aortal cross sections compared to the control group ([3]; IP sixteen weeks, high fat diet, Oil Red O): less lipid accumulation
- Total cholesterol ([3]; mice on high fat diet and peptide administered, individual mice (Table I)): 156 mg/dL and 161 mg/dL and 182 mg/dL
- effectiveness in stimulating human placental lactogen synthesis [4]: most effective peptide
- clearance curves [5]: virtually superimposable
- bilayer stabilizing property [6]: most bilayer stabilizing property
- stability of complex [7]: most stable complex
- effectiveness in BSA-induced lysis of fatty acid-containing vesicles [8]: most effective peptide
- competition with HDL for binding [9]: competes

Substance: DEPDWLKAFYDKVAEKLKEAFPDWLKAFYDKVAEKLKEAF [Asp-Glu-Pro-18A-Pro-18A]
- amount of peptide in the plasma [10]: approximately 20 μg/ml

Substance: Ac-DWLKAFYDKVFEKFKEFF-NH2 [5F, Ac-Asp-Trp-Leu-Lys-Ala-Phe-Tyr-Asp-Lys-Val-Phe-Glu-Lys-Phe-Lys-Glu-Phe-Phe-NH2]
- Total cholesterol ([11]; high fat diet, 50 μg/animal/day for 16 weeks, individual mice (Table III)): 156 and 161 and 182
- levels of plasma cholesterol ([11]; peptide injections 50 μg/animal/day for 16 weeks): markedly decreases
- aortal lesions ([12]; listed as SEQ No. 2): effective
- aortal lesions ([12]; listed as modified 18A): virtually no lesion
- VLDL-density particles in cholesterol profile compared to control animals ([12]; after sixteen weeks, IP, normal diet): decreased considerably

Substance: human apo A-I: human apolipoprotein A-I, protein component of HDL, used as comparator
- amount of the injected dosage present in the blood [2]: approximately 1 mg
- Total plasma cpm as a percent of the injected cpm [2]: 32%
- presence of the radiolabel in isolated lipoprotein fractions (FPLC) [2]: exclusively in HDL
- form of radioactivity in the plasma (TCA precipitation and FPLC analysis) [2]: present in the intact peptide/protein
- clearance curves [13]: virtually superimposable
